Our source for the pKd values is PMC9482650, “Quantitative fragmentomics allow affinity mapping of interactomes” (Nature Communications, 2022).

Targets include LDB3, O75112; LIMK2, P53671; NOS1, P29475.
What all share (assay): holdup assay
Common to all, as to design: key: below the threshold = too weak to quantify, mostly under pKd 3.1 to 4

The mark [1] stands for this setting: plain residues with an end cap or a label only (N-terminal biotin on a linker: ttds).
Setting [2] is: plain residues with an end cap or a label only (N-terminal biotin on a linker: ado-ado, ttds).
Setting [3] is: plain residues with an end cap or a label only (N-terminal biotin on a linker: ahx).
Setting [4] is: plain residues with an end cap or a label only (N-terminal biotin on a linker: ado-ado).

Sequence of LIMK2, P53671 (P53671 143-248): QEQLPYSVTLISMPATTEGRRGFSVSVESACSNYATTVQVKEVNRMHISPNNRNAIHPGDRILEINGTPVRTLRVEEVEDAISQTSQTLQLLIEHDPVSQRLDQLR
Sequence of LDB3, O75112 (O75112 1-94): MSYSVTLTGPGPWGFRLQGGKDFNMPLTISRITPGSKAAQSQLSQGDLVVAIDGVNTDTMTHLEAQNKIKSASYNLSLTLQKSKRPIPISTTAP
Sequence of NOS1, P29475 (P29475 9-101): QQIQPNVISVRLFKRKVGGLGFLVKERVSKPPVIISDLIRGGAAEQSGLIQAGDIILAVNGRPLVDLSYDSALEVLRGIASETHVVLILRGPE

B1: KCNJ12, Q14500 (peptide)
chain: QRPYRRESEI
In the case of B1, the pKd entry is “below the threshold” in the assay with LDB3, O75112 (setting [1]); “below the threshold” with LIMK2, P53671 (setting [1]); 3.53 in the assay with NOS1, P29475 (setting [1]).

B2: ARHGEF26, Q96DR7 (peptide)
chain: GRLLGLETNV
In the case of B2, the pKd entry with LDB3, O75112 (setting [1]) was “below the threshold”; in the assay with LIMK2, P53671 (setting [1]), “below the threshold”; with NOS1, P29475 (setting [1]), 3.88.

B3: KCNA4, P22459 (peptide)
chain: SNAKAVETDV
With B3, the pKd result was “below the threshold” in the assay with LDB3, O75112 (setting [2]); “below the threshold” with LIMK2, P53671 (setting [2]); 3.48 in the assay with NOS1, P29475 (setting [2]).

B4: MTMR1, Q13613 (peptide)
chain: HSATSVHTSV
B4: the pKd entry in the assay with LDB3, O75112 (setting [3]) was “below the threshold”; with LIMK2, P53671 (setting [3]), “below the threshold”; with NOS1, P29475 (setting [3]), 3.55.

B5: SLC1A3, P43003 (peptide)
chain: EKPIDSETKM
On to B5, for which the pKd result in the assay with LDB3, O75112 (setting [4]) is given as “below the threshold”; in the assay with LIMK2, P53671 (setting [4]), “below the threshold”; with NOS1, P29475 (setting [4]), “below the threshold”.

B6: USH1C, Q9Y6N9 (peptide)
chain: KEYDDELTFF
With B6, the pKd result with LDB3, O75112 (setting [3]) is listed as “below the threshold”; with LIMK2, P53671 (setting [3]), “below the threshold”; with NOS1, P29475 (setting [3]) it was “below the threshold”.

B7: MAPK12, P53778 (peptide)
chain: GARVSKETPL
On to B7, for which the pKd result in the assay with LDB3, O75112 (setting [1]) is “below the threshold”; with LIMK2, P53671 (setting [1]), “below the threshold”; with NOS1, P29475 (setting [1]), 3.82.

B8: DCHS2, Q6V1P9 (peptide)
chain: ELKAEDEVQI
As to B8, the pKd entry with LDB3, O75112 (setting [4]) is “below the threshold”; with LIMK2, P53671 (setting [4]), “below the threshold”; in the assay with NOS1, P29475 (setting [4]), 3.74.

B9: DLL1, O00548 (peptide)
chain: KDECVIATEV
In the case of B9, the pKd entry with LDB3, O75112 (setting [3]) is “below the threshold”; with LIMK2, P53671 (setting [3]), “below the threshold”; with NOS1, P29475 (setting [3]), 3.55.

B10: PDZRN3, Q9UPQ7 (peptide)
chain: YNSFLSVTTV
Consider B10, for which the pKd result is listed as “below the threshold” with LDB3, O75112 (setting [3]); “below the threshold” with LIMK2, P53671 (setting [3]); “below the threshold” with NOS1, P29475 (setting [3]).

B11: FAT3, Q8TDW7 (peptide)
chain: FVETQHQTQV
In the case of B11, the pKd entry with LDB3, O75112 (setting [1]) was “below the threshold”; in the assay with LIMK2, P53671 (setting [1]), “below the threshold”; with NOS1, P29475 (setting [1]), 3.95.

B12: U2AF2, P26368 (peptide)
chain: PDSYHRRDFW
On to B12, for which the pKd result in the assay with LDB3, O75112 (setting [4]) is on record as “below the threshold”; with LIMK2, P53671 (setting [4]), “below the threshold”; with NOS1, P29475 (setting [4]), “below the threshold”.

B13: SHKBP1, Q8TBC3 (peptide)
chain: PKMKLNETSF
Take B13: the pKd result is listed as “below the threshold” in the assay with LDB3, O75112 (setting [3]); “below the threshold” in the assay with LIMK2, P53671 (setting [3]); “below the threshold” with NOS1, P29475 (setting [3]).

B14: CBY2, Q8NA61 (peptide)
chain: SQDPKKPSRV
In the case of B14, the pKd result in the assay with LDB3, O75112 (setting [4]) was “below the threshold”; with LIMK2, P53671 (setting [4]), “below the threshold”; with NOS1, P29475 (setting [4]) it was 3.76.

B15: ARVCF, O00192 (peptide)
chain: AKPQPVDSWV
With B15, the pKd result in the assay with LDB3, O75112 (setting [3]) was “below the threshold”; with LIMK2, P53671 (setting [3]) it was “below the threshold”; with NOS1, P29475 (setting [3]), 3.85.

B16: GPR6, P46095 (peptide)
chain: PFRSRSPSEV
B16: the pKd entry with LDB3, O75112 (setting [1]) is “below the threshold”; in the assay with LIMK2, P53671 (setting [1]), “below the threshold”; with NOS1, P29475 (setting [1]), 3.74.

B17: DGKI, O75912 (peptide)
chain: IGHEDLETAV
In the case of B17, the pKd entry with LDB3, O75112 (setting [4]) is “below the threshold”; with LIMK2, P53671 (setting [4]) it was “below the threshold”; with NOS1, P29475 (setting [4]), 4.17.

B18: CNTNAP4, Q9C0A0 (peptide)
chain: VNENQKEYFF
On to B18, for which the pKd result with LDB3, O75112 (setting [3]) is “below the threshold”; with LIMK2, P53671 (setting [3]), “below the threshold”; in the assay with NOS1, P29475 (setting [3]) it was 3.83.

B19: GDA, Q9Y2T3 (peptide)
chain: KQVVPFSSSV
In the case of B19, the pKd entry in the assay with LDB3, O75112 (setting [1]) is “below the threshold”; with LIMK2, P53671 (setting [1]), “below the threshold”; in the assay with NOS1, P29475 (setting [1]) it was “below the threshold”.

B20: NHERF1, O14745 (peptide)
chain: SKKNELFSNL
For B20, the pKd entry in the assay with LDB3, O75112 (setting [3]) is “below the threshold”; in the assay with LIMK2, P53671 (setting [3]), “below the threshold”; in the assay with NOS1, P29475 (setting [3]) it was “below the threshold”.

B21: ARHGAP6, O43182 (peptide)
chain: NPDALPETLV
Turning to B21, the pKd result is “below the threshold” in the assay with LDB3, O75112 (setting [1]); “below the threshold” with LIMK2, P53671 (setting [1]); 3.92 with NOS1, P29475 (setting [1]).

B22: PODXL, O00592 (peptide)
chain: DLDEEEDTHL
B22: the pKd in the assay with LDB3, O75112 (setting [1]) is 3.49; with LIMK2, P53671 (setting [1]) it was “below the threshold”; with NOS1, P29475 (setting [1]), “below the threshold”.

B23: RAPGEF6, Q8TEU7 (peptide)
chain: ADENEQVSAV
B23: the pKd entry with LDB3, O75112 (setting [3]) was “below the threshold”; in the assay with LIMK2, P53671 (setting [3]) it was “below the threshold”; with NOS1, P29475 (setting [3]) it was 3.61.

B24: PDLIM2, Q96JY6 (peptide)
chain: SAPATLSSRA
For B24, the pKd entry with LDB3, O75112 (setting [3]) was “below the threshold”; in the assay with LIMK2, P53671 (setting [3]), “below the threshold”; with NOS1, P29475 (setting [3]) it was “below the threshold”.

B25: FMNL3, Q8IVF7 (peptide)
chain: DAAHHDESNC
As for B25, the pKd entry with LDB3, O75112 (setting [4]) is on record as “below the threshold”; with LIMK2, P53671 (setting [4]), “below the threshold”; with NOS1, P29475 (setting [4]), “below the threshold”.
